The values below come from publication PMC10516654, “Structural and functional characterization of MrpR, the master repressor of the Bacillus subtilis prophage SPβ”.

For the data set, the target named is T1, MrpR (Bacillus subtilis prophage SPβ, UniProt O34558 1-325).
T1 sequence: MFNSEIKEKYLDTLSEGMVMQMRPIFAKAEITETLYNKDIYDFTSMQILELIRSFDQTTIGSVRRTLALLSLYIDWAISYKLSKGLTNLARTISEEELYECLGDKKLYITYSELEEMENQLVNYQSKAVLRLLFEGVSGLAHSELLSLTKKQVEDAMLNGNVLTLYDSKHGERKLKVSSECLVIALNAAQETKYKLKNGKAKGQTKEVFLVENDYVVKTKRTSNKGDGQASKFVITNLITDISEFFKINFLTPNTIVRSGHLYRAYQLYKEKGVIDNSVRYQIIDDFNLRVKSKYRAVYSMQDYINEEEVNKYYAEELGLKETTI
Description: ITC; ITC: 20 mM HEPES-Na pH 7.5, 200 mM NaCl, 20 mM KCl, 25 C, 20 uM DNA in cell, protein in syringe, one set of sites; EMSA: same buffer plus 50 ug/ml herring sperm DNA, 50 nM DNA, RT 15 min, 6% native PAGE 0.5x TBE. The note with it: protein: recombinant; tags: C-terminal His6; blunt.

B1: aimR promoter ITC duplex (LC292/LC293) (dsDNA)
DNA 1: GAATTTTAAAGAGATTACAAATACAAAAAATATGTATAAAATAATTGACTCGTAATG
DNA 2: CATTACGAGTCAATTATTTTATACATATTTTTTGTATTTGTAATCTCTTTAAAATTC
Consider B1, for which the Kd is 238 ± 80 nM.
